Values quoted from earlier work, collected in patent publication US20060104951A1, “Akt and regulation of RA synovial fibroblast apoptosis” (priority 2004, published 2006).

Tested on: Akt
Settings: Cell: HL-60

B1: Focal adhesion kinase: pathway kinase whose overexpression activates Akt in HL-60 (protein, UniProt Q05397 2-1052, looked up)
Focal adhesion kinase 1: AAAYLDPNLNHTPNSSTKTHLGTGMERSPGAMERVLKVFHYFESNSEPTTWASIIRHGDATDVRGIIQKIVDSHKVKHVACYGFRLSHLRSEEVHWLHVDMGVSSVREKYELAHPPEEWKYELRIRYLPKGFLNQFTEDKPTLNFFYQQVKSDYMLEIADQVDQEIALKLGCLEIRRSYWEMRGNALEKKSNYEVLEKDVGLKRFFPKSLLDSVKAKTLRKLIQQTFRQFANLNREESILKFFEILSPVYRFDKECFKCALGSSWIISVELAIGPEEGISYLTDKGCNPTHLADFTQVQTIQYSNSEDKDRKGMLQLKIAGAPEPLTVTAPSLTIAENMADLIDGYCRLVNGTSQSFIIRPQKEGERALPSIPKLANSEKQGMRTHAVSVSETDDYAEIIDEEDTYTMPSTRDYEIQRERIELGRCIGEGQFGDVHQGIYMSPENPALAVAIKTCKNCTSDSVREKFLQEALTMRQFDHPHIVKLIGVITENPVWIIMELCTLGELRSFLQVRKYSLDLASLILYAYQLSTALAYLESKRFVHRDIAARNVLVSSNDCVKLGDFGLSRYMEDSTYYKASKGKLPIKWMAPESINFRRFTSASDVWMFGVCMWEILMHGVKPFQGVKNNDVIGRIENGERLPMPPNCPPTLYSLMTKCWAYDPSRRPRFTELKAQLSTILEEEKAQQEERMRMESRRQATVSWDSGGSDEAPPKPSRPGYPSPRSSEGFYPSPQHMVQTNHYQVSGYPGSHGITAMAGSIYPGQASLLDQTDSWNHRPQEIAMWQPNVEDSTVLDLRGIGQVLPTHLMEERLIRQQQEMEEDQRWLEKEERFLKPDVRLSRGSIDREDGSLQGPIGNQHIYQPVGKPDPAAPPKKPPRPGAPGHLGSLASLSSPADSYNEGVKLQPQEISPPPTANLDRSNDKVYENVTGLVKAVIEMSSKIQPAPPEEYVPMVKEVGLALRTLLATVDETIPLLPASTHREIEMAQKLLNSDLGELINKMKLAQQYVMTSLQQEYKKQMLTAAHALAVDAKNLLDVIDQARLKMLGQTRPH
Action: Activates Akt
